Experimental data: publication PMC11662939, “CRISPR-AsCas12f1 couples out-of-protospacer DNA unwinding with exonuclease activity in the sequential target cleavage”

T1: AsCas12f1 (Acidibacillus sulfuroxidans, UniProt A0A2U3D0N8 1-422)
T1 sequence: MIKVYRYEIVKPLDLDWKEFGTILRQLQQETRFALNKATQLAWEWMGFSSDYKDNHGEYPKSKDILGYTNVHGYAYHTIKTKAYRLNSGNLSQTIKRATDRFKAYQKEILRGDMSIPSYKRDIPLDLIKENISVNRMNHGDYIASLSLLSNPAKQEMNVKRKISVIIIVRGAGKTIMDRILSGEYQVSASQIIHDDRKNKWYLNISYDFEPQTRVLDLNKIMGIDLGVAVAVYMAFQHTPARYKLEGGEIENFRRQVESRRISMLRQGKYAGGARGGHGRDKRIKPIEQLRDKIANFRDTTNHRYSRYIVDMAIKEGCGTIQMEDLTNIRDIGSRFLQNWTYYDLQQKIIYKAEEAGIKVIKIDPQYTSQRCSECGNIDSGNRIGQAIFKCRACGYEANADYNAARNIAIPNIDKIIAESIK


Key:
AsCas12f1 [1] = target: T1, AsCas12f1; test: smFRET; crRNA-tracrRNA; binding then cleavage, E ~0.5; Assay buffers not in the material; duplexes annealed in 20 mM Tris-HCl pH 8.0, 50 mM NaCl; smFRET with 1-10 mM Mg2+; settings: protein: recombinant; tags: N-terminal His6-SUMO, removed by HRV3C; chain copies: 2; label: iCy3dT (+34) and 3' biotin on NTS; 3' Cy5 on crRNA; strands: TS/NTS/crRNA/tracrRNA; DNA blunt; crRNA 3' 20 nt pairs with TS
AsCas12f1 [2] = target: T1, AsCas12f1; test: smFRET; partially matched guide/target (16-20mm); low E 0.2-0.4, partial hybridization; Assay buffers not in the material; duplexes annealed in 20 mM Tris-HCl pH 8.0, 50 mM NaCl; smFRET with 1-10 mM Mg2+; settings: protein: recombinant; tags: N-terminal His6-SUMO, removed by HRV3C; chain copies: 2; label: iCy3dT and 3' biotin on NTS; 3' Cy5 on crRNA; strands: TS/NTS/crRNA/tracrRNA; DNA blunt; guide mismatched at positions 16-20

Binder | binding result (AsCas12f1 [1]) | binding result (AsCas12f1 [2])
smFRET target DNA with crRNA/tracrRNA (mixed) DNA 1: ACGCACCAGAAACGAAGGCTACGTCCAGGAGCGCACCATCTTCTTCAAGGAATACAAACAAGCTAAGCACAACGTCGTCT DNA 2: AGACGACGTTGTGCTTAGCTTGTTTGTATTCCTTGAAGAAGATGGTGCGCTCCTGGACGTAGCCTTCGTTTCTGGTGCGT RNA 1: GUUUGCGAGCUAGCUUGUGGAGUGUGAACUAUUCCUUGAAGAAGAUGGU RNA 2: GGAUUCGUCGGUUCAGCGACGAUAAGCCGAGAAGUGCCAAUAAAACUGUUAAGUGGUUUGGUAACGCUCGGUAAGGUAGCCAAAAGGCUGAAACUCCGUGCACAAAGACCGCACGGACGCUUCACAUAUAGCUCAUAAAC | binds | 
Protospacer 16-20mm DNA with crRNA/tracrRNA (mixed) DNA 1: ACGCACCAGAAACGAAGGCTACGTCCAGGAGCGCGTACGCTTCTTCAAGGAATACAAACAAGCTAAGCACAACGTCGTCT DNA 2: AGACGACGTTGTGCTTAGCTTGTTTGTATTCCTTGAAGAAGCGTACGCGCTCCTGGACGTAGCCTTCGTTTCTGGTGCGT RNA 1: GUUUGCGAGCUAGCUUGUGGAGUGUGAACUAUUCCUUGAAGAAGAUGGU RNA 2: GGAUUCGUCGGUUCAGCGACGAUAAGCCGAGAAGUGCCAAUAAAACUGUUAAGUGGUUUGGUAACGCUCGGUAAGGUAGCCAAAAGGCUGAAACUCCGUGCACAAAGACCGCACGGACGCUUCACAUAUAGCUCAUAAAC |  | binds
